According to patent US20230183713A1, “SITE-SPECIFIC RECOMBINASES FOR EFFICIENT AND SPECIFIC GENOME EDITING” (TECHNISCHE UNIVERSITÄt DRESDEN, published 2023):

Assays:
[1] = biological target: T1, Cre recombinase monomer with Y324R mutation
T1 chain: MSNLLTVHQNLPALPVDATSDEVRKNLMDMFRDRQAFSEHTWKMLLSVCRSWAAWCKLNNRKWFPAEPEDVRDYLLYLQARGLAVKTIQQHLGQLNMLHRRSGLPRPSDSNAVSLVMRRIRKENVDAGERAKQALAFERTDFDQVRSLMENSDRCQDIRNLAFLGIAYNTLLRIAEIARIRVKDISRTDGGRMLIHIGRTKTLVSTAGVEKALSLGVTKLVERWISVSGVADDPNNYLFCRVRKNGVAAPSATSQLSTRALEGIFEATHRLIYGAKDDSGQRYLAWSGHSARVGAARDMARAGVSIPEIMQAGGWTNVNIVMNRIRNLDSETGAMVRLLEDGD

[2] = biological target: T2, Cre recombinase monomer with W315L mutation
T2 chain: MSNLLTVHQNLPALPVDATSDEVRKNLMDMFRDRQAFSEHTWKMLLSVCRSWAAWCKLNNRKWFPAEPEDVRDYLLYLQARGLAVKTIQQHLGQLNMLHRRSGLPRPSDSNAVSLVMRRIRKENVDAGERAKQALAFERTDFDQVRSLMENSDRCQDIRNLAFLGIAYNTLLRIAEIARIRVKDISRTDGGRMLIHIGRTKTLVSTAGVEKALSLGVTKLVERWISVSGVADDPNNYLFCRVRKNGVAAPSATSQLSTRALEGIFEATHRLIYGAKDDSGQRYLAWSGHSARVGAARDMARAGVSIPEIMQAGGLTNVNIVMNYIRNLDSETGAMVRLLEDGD

[3] = biological target: T3, Cre recombinase monomer with Y324W mutation
T3 chain: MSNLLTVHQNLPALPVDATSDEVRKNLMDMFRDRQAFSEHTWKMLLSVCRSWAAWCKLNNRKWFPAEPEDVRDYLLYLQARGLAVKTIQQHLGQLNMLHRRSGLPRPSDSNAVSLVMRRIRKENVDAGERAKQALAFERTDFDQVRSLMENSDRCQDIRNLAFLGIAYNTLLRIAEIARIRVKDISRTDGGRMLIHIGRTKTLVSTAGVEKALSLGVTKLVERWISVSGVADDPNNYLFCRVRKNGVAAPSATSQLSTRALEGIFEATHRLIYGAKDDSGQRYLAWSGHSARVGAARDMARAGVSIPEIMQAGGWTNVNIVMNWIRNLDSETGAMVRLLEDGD

[4] = biological target: T4, Cre recombinase monomer with Y324V mutation
T4 chain: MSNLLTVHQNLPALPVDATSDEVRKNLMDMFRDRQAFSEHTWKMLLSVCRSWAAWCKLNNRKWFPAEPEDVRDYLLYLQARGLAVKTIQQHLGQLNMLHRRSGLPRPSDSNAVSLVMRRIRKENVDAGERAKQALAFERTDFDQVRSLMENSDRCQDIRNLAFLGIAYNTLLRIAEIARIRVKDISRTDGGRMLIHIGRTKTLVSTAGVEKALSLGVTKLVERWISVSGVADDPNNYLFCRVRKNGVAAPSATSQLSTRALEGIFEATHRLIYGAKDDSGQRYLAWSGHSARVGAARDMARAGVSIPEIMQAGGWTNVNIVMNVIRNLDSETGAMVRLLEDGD

[5] = biological target: T5, Cre recombinase monomer with Y324Q mutation
T5 chain: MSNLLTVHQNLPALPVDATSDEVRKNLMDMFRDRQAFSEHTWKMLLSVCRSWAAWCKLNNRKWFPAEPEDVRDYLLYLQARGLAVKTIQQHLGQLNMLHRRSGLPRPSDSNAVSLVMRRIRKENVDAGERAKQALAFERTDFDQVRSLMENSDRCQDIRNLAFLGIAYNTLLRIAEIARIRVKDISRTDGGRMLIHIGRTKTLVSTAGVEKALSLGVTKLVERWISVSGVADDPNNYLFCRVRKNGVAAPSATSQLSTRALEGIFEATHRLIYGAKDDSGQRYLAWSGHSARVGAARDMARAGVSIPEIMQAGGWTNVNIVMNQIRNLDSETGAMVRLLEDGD

[6] = biological target: T6, Cre recombinase monomer with Y324H mutation
T6 chain: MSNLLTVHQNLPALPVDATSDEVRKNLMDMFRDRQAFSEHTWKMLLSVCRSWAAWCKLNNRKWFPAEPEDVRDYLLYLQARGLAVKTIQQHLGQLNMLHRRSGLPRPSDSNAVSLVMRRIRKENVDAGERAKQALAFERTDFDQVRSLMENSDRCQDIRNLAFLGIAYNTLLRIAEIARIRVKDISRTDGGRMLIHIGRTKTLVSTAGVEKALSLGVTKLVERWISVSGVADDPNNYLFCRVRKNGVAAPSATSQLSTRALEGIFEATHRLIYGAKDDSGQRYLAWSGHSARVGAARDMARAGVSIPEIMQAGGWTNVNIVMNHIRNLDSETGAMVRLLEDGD

[7] = biological target: T7, Cre recombinase monomer with W315N mutation
T7 chain: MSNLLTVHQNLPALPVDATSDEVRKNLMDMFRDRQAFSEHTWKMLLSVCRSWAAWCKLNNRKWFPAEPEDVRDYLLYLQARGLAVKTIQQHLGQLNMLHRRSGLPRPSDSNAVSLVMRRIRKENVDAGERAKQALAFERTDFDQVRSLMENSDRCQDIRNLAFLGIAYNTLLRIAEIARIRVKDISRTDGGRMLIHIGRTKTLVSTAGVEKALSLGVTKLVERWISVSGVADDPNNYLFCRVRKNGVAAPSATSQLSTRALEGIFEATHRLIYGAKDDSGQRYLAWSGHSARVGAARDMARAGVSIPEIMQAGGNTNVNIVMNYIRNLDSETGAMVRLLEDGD

[8] = biological target: T8, Cre recombinase monomer with Y324K mutation
T8 chain: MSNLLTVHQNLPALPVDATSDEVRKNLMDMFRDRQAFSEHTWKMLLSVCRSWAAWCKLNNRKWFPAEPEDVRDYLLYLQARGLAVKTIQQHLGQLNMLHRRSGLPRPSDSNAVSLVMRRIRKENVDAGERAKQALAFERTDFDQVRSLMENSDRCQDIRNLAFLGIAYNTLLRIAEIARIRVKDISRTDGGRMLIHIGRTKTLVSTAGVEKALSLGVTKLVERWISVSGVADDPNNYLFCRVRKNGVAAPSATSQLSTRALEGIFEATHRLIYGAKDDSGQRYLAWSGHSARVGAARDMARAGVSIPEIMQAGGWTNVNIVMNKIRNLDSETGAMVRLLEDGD

B1: Cre recombinase monomer with Q311R mutation (protein)
chain: MSNLLTVHQNLPALPVDATSDEVRKNLMDMFRDRQAFSEHTWKMLLSVCRSWAAWCKLNNRKWFPAEPEDVRDYLLYLQARGLAVKTIQQHLGQLNMLHRRSGLPRPSDSNAVSLVMRRIRKENVDAGERAKQALAFERTDFDQVRSLMENSDRCQDIRNLAFLGIAYNTLLRIAEIARIRVKDISRTDGGRMLIHIGRTKTLVSTAGVEKALSLGVTKLVERWISVSGVADDPNNYLFCRVRKNGVAAPSATSQLSTRALEGIFEATHRLIYGAKDDSGQRYLAWSGHSARVGAARDMARAGVSIPEIMRAGGWTNVNIVMNYIRNLDSETGAMVRLLEDGD
With B1 the “Median dimer activity (recombination on loxP)” value (shortened to “Median dimer activity”) [1] was 61%, the “Median dimer activity” value [2] was 68% and the “Median dimer activity” value [3] was 95%. The “Median dimer activity” value [4] was 90%, the “Median dimer activity” value [5] was 72% and the “Median dimer activity” value [6] was 76%. For the same protein, the “Median dimer activity” value [7] was 64% and the “Median dimer activity” value [8] was 85%.
